Test results: PMC6557641

Biological target: Chicken skeletal muscle actin, assembled into filaments (F-actin) (chicken) (UniProt P68139)
Assay: TIRF microscopy of labeled protein on actin filaments; four-color TIRFM; 1.5 μM Mg-ATP actin (15% Alexa 488-labeled), 50 nM Fim1 (Alexa 405-labeled), 2.5 μM Cdc8 (TMR-labeled), without or with 500 nM Ain1 (Cy5-labeled); fluorescence on two-filament bundles; room temperature

fold of Cdc8 on F-actin bundles with Fim1 and Ain1 against with Fim1 alone: > 100 fold
Substance: acetylation mimic tropomyosin AlaSer-Cdc8, fluorescently labeled (TMR or Cy5) (natural protein)
